For one substance, K0.5 results are on record in paper PMC10176505, “PYK-SubstitutionOME: an integrated database containing allosteric coupling, ligand affinity and mutational, structural, pathological, bioinformatic and computational information about pyruvate kinase isozymes” (Database: The Journal of Biological Databases and Curation, 2023).

For the data set, the system named is T1, C=C(OP(=O)(O)O)C(=O)O.
T1 construct: full-length liver isozyme; homotetramer; purified or partially purified
Briefly: enzyme kinetics, PEP concentration at half Vmax. Format: biochemical, Homo sapiens. As to conditions: no allosteric effector; apparent affinity (not an association constant). The text has this: enzyme kinetics, PEP concentration at half Vmax on hLPYK | Ka-PEP (the kinetic equivalent to Kia-PEP), the apparent affinity for PEP

hLPYK (Homo sapiens), sequence (chain, as listed by the source): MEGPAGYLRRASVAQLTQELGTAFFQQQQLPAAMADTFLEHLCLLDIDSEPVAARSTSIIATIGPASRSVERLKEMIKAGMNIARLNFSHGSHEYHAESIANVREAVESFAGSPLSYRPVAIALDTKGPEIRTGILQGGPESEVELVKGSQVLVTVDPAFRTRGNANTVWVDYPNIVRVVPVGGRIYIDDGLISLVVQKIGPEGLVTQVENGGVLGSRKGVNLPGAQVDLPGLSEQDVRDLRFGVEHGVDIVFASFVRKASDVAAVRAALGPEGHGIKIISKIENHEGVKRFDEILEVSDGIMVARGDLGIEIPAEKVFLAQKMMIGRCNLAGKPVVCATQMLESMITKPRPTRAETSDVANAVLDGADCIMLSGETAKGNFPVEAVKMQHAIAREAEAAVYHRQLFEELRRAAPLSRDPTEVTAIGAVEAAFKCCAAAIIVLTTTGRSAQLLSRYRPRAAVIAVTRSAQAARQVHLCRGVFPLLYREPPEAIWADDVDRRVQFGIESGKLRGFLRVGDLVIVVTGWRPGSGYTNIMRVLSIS

Take hLPYK (Homo sapiens): the K0.5 was found to be 0.22 mM.
